Assay results as given in patent CN113621079A.

Key:
[1] = target: CA724 胃癌抗原 (B72.3抗原); assay: direct ELISA, antigen coated at 100 ng/mL, pNPP substrate read through the fused AP; still in linear range, no plateau
[2] = target: CA724 胃癌抗原 (B72.3抗原); assay: ELISA, antigen coated at 100 ng/mL, HRP goat anti-mouse Fab secondary, OD450
[3] = target: CA724 胃癌抗原 (B72.3抗原); assay: direct ELISA, antigen coated at 100 ng/mL, pNPP substrate read through the attached ALP; plateau value

Fab抗体与碱性磷酸酶融合蛋白(Fab)2-AP (CA724-B72.3 Fab fused to calf intestinal alkaline phosphatase, Fab:AP monomer 1:1), sequence (light, form in doubt): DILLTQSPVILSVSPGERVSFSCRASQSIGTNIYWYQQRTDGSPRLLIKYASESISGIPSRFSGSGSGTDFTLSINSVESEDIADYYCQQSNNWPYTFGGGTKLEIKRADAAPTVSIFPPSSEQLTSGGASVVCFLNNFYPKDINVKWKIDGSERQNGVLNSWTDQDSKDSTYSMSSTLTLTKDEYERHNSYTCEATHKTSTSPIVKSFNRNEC

吸光值 (405nm) [1] | fold decrease of high-end antibody activity (against the original antibody / fusion protein) [2] | 最高吸光值 (405nm) [3] | Substance
1.2 OD405 | – | – | Fab抗体与碱性磷酸酶融合蛋白(Fab)2-AP (CA724-B72.3 Fab fused to calf intestinal alkaline phosphatase, Fab:AP monomer 1:1)
– | 1 倍 | 0.8 OD405 | 对照抗体化学标记ALP蛋白 (CA724-B72.3 antibody chemically labelled with alkaline phosphatase)
